Data set [1] concerns the target T1, murine norovirus particle (capsid of 180 VP1) (Murine norovirus 1 (MNV-1, clone CW-1)) (UniProt B7XA03).
T1 sequence: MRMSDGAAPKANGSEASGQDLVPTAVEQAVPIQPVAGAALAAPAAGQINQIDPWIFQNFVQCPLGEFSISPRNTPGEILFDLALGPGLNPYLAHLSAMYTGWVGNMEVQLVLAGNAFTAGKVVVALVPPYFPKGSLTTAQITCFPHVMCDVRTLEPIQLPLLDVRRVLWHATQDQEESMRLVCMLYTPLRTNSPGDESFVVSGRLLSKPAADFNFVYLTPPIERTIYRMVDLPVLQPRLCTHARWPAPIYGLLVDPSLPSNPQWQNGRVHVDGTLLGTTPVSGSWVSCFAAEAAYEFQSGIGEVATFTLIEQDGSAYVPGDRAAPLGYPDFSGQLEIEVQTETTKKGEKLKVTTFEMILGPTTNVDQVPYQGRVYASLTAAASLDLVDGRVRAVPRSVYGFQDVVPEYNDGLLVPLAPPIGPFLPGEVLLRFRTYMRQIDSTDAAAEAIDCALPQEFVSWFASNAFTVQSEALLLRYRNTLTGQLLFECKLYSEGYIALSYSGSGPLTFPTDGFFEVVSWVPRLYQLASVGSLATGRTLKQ
The data set is described as follows: filter binding (polycarbonate).

Data set [2] concerns the target T1, murine norovirus particle (capsid of 180 VP1) (Murine norovirus 1 (MNV-1, clone CW-1)). As to the kind of experiment: electrochemical aptasensor (SWV). To be noted: thiol (end not stated in material); GSB: 50 mM NaCl, 20 mM Tris-HCl pH 7.4, 3 mM MgCl2, 5 mM KCl, room temperature (anisotropy ~1 h; filter 24 h); aptasensor: Dulbecco's PBS, 25 C, 1 h.

Results on two sequences are retold here after publication PMC3828344.

In data set [1], “GCTAGCGAATTCCGTACGAAGGGCGAATTCCACATTGGGCTGCAGCCCGGGGGATCC [AG3]” gave a K half of 0.1 pM.
In data set [2], “GCTAGCGAATTCCGTACGAAGGGCGAATTCCACATTGGGCTGCAGCCCGGGGGATCC [thiolated AG3 (aptasensor)]” came in with a binding signal (% of current decrease (110.6 to 34.6 uA)) of 100.
